Reference: patent publication US20080292641A1 (MORPHOTEK, published 2008)

B1: anti-GM-CSF human IgG1 monoclonal antibody E10 (antibody, V domains shown)
VH: QVQLEESGGGVVQPGRSLRLSCAASGFTFTNYGMHWVRQAPGKGLEWLALISYDGNRQYYADSVKGRFTVSRDNPNNTLHLEMKSLRAEDSAIYYCARGAGVLLWFGDLSWFDPWGQGTLVTVSS
VL: DIQMTQSPSNLSASVGDRVTITCRASQNINTWLAWYQHKPGKPPKLRIYQASTLESGVPSRFSGSGSGTIFTLTISSLQPDDFGTYYCQQNNSYPYTFGQGTKLEINR
notes: Fully human IgG1 kappa made by a hybridoma from B cells of a PAP patient; also called 4E10; E10.20
B2: anti-GM-CSF human IgG1 monoclonal antibody G9 (antibody, V domains shown)
VH: EVQLVESGGGLVQPGGSLRLSCAASGFTFSRHWMHWLRQVPGKGPVWVSRINGAGTSITYADSVRGRFTISRDNANNTLFLQMNSLRADDTALYFCARANSVWFRGLFDYWGQGTPVTVSS
VL: EIVLTQSPVTLSVSPGERVTLSCRASQSVSTNLAWYQQKLGQGPRLLIYGASTRATDIPARFSGSGSETEFTLTISSLQSEDFAVYYCQQYDKWPDTFGQGTKLEIKR
notes: Fully human IgG1 kappa made by a hybridoma from B cells of a PAP patient; also called 10G9; 10G9.1

Target: TT (tetanus toxin / tetanus toxoid) (UniProt P04958 2-1315)
Experiment: ELISA of hybridoma clones

TT (tetanus toxin / tetanus toxoid), sequence (P04958 2-457 limits assumed, chain 1 of 2): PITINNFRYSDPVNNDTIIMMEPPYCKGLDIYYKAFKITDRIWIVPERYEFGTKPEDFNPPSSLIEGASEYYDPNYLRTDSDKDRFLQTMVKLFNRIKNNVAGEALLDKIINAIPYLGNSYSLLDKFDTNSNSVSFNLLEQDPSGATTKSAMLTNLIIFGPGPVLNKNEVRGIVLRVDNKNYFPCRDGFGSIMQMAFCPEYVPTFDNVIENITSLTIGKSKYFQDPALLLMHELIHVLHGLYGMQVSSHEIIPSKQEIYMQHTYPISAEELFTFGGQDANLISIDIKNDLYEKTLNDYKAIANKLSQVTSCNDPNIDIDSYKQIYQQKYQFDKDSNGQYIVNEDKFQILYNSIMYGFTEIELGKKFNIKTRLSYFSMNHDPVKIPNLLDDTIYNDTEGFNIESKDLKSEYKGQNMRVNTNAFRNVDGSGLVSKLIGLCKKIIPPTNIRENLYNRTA
TT (tetanus toxin / tetanus toxoid), sequence (P04958 458-1315 limits assumed, chain 2 of 2): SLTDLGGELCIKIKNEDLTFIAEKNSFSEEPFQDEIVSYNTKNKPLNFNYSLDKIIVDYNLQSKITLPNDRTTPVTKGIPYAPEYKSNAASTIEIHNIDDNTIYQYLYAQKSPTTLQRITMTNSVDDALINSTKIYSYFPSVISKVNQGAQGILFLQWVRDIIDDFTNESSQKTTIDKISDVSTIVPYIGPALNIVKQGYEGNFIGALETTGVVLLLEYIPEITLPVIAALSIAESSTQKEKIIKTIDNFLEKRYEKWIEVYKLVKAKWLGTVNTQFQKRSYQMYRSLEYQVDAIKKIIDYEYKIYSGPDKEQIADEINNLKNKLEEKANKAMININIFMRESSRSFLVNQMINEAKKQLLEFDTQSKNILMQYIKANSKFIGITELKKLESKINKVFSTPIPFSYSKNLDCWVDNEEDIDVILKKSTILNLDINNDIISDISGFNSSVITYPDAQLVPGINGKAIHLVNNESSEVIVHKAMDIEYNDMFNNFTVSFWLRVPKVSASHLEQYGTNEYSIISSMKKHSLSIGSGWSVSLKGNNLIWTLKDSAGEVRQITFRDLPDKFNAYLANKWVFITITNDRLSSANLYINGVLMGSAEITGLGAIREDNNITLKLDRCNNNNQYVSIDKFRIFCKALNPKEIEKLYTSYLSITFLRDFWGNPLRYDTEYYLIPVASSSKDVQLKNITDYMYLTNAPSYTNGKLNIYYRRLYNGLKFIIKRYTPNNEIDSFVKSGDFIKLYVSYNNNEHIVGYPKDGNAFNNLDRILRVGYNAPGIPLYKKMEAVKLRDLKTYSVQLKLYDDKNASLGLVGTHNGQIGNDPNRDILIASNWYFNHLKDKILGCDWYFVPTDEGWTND

Binder	binding result
B1	no binding
B2	no binding
